Source: paper doi:10.1101/2022.06.02.494603 (bioRxiv, 2022)

Molecular target: optineurin, C-terminal myc-FLAG-tagged (UniProt Q96CV9 1-577)
Assay: co-IP

optineurin, C-terminal myc-FLAG-tagged, sequence (Q96CV9 whole entry): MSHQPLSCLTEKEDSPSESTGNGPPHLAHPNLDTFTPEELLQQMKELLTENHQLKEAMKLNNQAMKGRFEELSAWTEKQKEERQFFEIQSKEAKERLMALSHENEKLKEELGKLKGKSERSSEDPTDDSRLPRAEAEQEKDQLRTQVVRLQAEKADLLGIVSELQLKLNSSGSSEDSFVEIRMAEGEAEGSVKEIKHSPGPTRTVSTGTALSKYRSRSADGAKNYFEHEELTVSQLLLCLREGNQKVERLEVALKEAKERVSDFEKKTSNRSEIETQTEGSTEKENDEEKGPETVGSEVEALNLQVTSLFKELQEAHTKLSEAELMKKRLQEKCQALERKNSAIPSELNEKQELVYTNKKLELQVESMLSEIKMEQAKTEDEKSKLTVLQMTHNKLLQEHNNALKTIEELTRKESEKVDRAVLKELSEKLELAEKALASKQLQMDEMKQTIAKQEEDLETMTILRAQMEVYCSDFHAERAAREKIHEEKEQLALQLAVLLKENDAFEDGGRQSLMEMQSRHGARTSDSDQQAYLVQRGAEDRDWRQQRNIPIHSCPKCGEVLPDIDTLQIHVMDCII

B1: TBK1 T4A, untagged (natural protein, human, UniProt Q9UHD2 1-729, looked up)
chain: MQSASNHLWLLSDILGQGATANVFRGRHKKTGDLFAIKVFNNISFLRPVDVQMREFEVLKKLNHKNIVKLFAIEEETTTRHKVLIMEFCPCGSLYTVLEEPSNAYGLPESEFLIVLRDVVGGMNHLRENGIVHRDIKPGNIMRVIGEDGQSVYKLTDFGAARELEDDEQFVSLYGTEEYLHPDMYERAVLRKDHQKKYGATVDLWSIGVTFYHAATGSLPFRPFEGPRRNKEVMYKIITGKPSGAISGVQKAENGPIDWSGDMPVSCSLSRGLQVLLTPVLANILEADQEKCWGFDQFFAETSDILHRMVIHVFSLQQMTAHKIYIHSYNTATIFHELVYKQTKIISSNQELIYEGRRLVLEPGRLAQHFPKTTEENPIFVVSREPLNTIGLIYEKISLPKVHPRYDLDGDASMAKAITGVVCYACRIASTLLLYQELMRKGIRWLIELIKDDYNETVHKKTEVVITLDFCIRNIEKTVKVYEKLMKINLEAAELGEISDIHTKLLRLSSSQGTIETSLQDIDSRLSPGGSLADAWAHQEGTHPKDRNVEKLQVLLNCMTEIYYQFKKDKAERRLAYNEEQIHKFDKQKLYYHATKAMTHFTDECVKKYEAFLNKSEEWIRKMLHLRKQLLSLTNQCFDIEEEVSKYQEYTNELQETLPQKMFTASSGIKHTMTPIYPSSNTLVEMTLGMKKLKEEMEGVVKELAENNHILERFGSLTMDGGLRNVDCL
- TBK1 bound to OPTN relative to wild type: 1.93 relative to TBK1 WT
